For one substance, Kd, koff and kon results are on record in article PMC5827136.

This experiment concerns the target Histone H4 (UniProt P62805). Put plainly: SPR. (Surface plasmon resonance follows binding to a sensor surface in real time, without labels.)

What is called Kd is the equilibrium constant for the complex coming apart. As a reminder, the koff is a measure of how fast the partners let go of each other. Lower therefore signals slow dissociation. For orientation: kon means the second-order rate constant of association. A low value points to slow association. With “protein SIC (Streptococcal Inhibitor of Complement) (natural protein)”, the Kd was determined as 17.6 nM, the koff stood at 0.000591 s⁻¹ and the on-rate (kon) came to 33500 M⁻¹ s⁻¹.
